# Ends that are not written are not given here.
# B1: SPB (1-78): synthetic full length SP-B peptide, sequence based on natural SP-B (peptide, UniProt P07988 201-279, looked up)
# Pulmonary …: FPIPLPYCWLCRALIKRIQAMIPKGALAVAVAQVCRVVPLVAGGICQCLAERYSVILLDTLLGRMLPQLVCRLVLRCSM
# modifications: Pulmonary surfactant-associated protein B
# Legend:
# Assay type in all cases: physicochemical
# [1] = Modified Wilhelmy surface balance (Langmuir trough): dynamic surface tension vs compressed surface area; conditions: 37° C.; for Equilibrum (equilibrium adsorption value): after a three (3) minute spreading time, total peptide 0.5 mg/ml; for Wilhelmy-Langmuir Trough Max (maximum dynamic surface tension) / Wilhelmy-Langmuir Trough Min (minimum dynamic surface tension): peptide/lipid admixture, total peptide 0.5 mg/ml (2%; two peptides 0.25 mg/ml each), 675 μg phospholipid, seven compression-expansion cycles, average of 3 runs
# Text: The dynamic surface tension lowering properties of the peptide/lipid admixtures were studied using a modified Wilhelmy Surface Balance (Langmuir Trough). The instrument consists of an all Teflon trough and movable Teflon ribbon (dam) barrier system which completely contains and defines a variable surface area. Surface area was varied through the use of a constant rate reversible 3-phase motor to drive the Teflon barrier. A Cahn 2000 electrobalance (Cahn Instruments, Cerittos, Calif.) with a sandblasted 1 cm platinum plate and stainless steel hangdown wire was employed to determine the surface tension at the liquid-air interface. The entire apparatus was situated in a thermostated incubator set at 45° C. Surface area-surface tension measurements were made by adding 950 ml of 0.15 M NaCl to the trough. Subphase temperature was controlled during the measurements at 36-38° C.
# For each experiment 27 ul of peptide/lipid admixture was applied in a random array of 13 (.congruent.2 ul) droplets to the surface of the temperature controlled subphase and allowed to spread spontaneously for 3 minutes. (The 27 ul application corresponds to 675 ug of phospholipid). The trough surface area was then cycled from a maximum (445 sq. cm) to a minimum (178 sq. cm) surface area and back to maximum at a cycling rate of 3 cycles/min (compression ratio 2.5:1). The dynamic surface tension vs surface area was recorded for 7 complete compression-expansion cycles for each application.
# [2] = Adsorption rate, King-Clements system (Wilhelmy balance, stirred Teflon dish); conditions: 10 ml of diluted sample (1:50) added under constant agitation to 70 ml saline subphase; 37° C.; total peptide 0.5 mg/ml
# Protocol: A procedure similar to that described by Notter, et al., Pediatric Res. 16, 515-519, (1982) was employed to determine the absorption rate in the absence of diffusion resistance. The modified Wilhelmy surface balance as described above was used. However, instead of using a Langmuir trough a round Teflon dish (5.1 cm diameter) was employed. The subphase, 70 ml of 0.15 M NaCl, was allowed to equilibrate to 37° C. in the incubator and was continuously stirred with a Teflon coated magnetic stirer. An aliquot of the peptide/lipid admixture containing 5 mg of total phospholipid was dispersed in 10 ml of 0.15 M NaCl by vortexing for 10 seconds. This dispersion was then added to the saline subphase. Surface tension lowering was monitored using a strip chart recorder connected to the electrobalance output and data collected for 20 minutes.
# [3] = Pulsating bubble surfactometer (PBS); conditions: after 100 cycles (5 minutes, 20 cycles/minute); phospholipid 1 mg/ml; 37° C.; […] NaCl; mean of triplicate
# Protocol: The PBS equipment (Electronetics, Buffalo, N.Y.) used was essentially equivalent to that described in detail by G. Enhorning, J. Appid. Physiol. 43, 198-203, (1977). Recordings were made of the pressure gradient across the wall of a small air bubble, communicating with ambient air by means of a narrow chimney stack, but otherwise entirely surrounded by a 40 ul volume of the peptide/lipid admixture. The admixture concentration employed for these studies was 1 mg/ml total phospholipid (0.02 mg/ml total peptide) and the diluent was 0.15 M NaCl. Immediately prior to loading the sample chamber, the diluted samples were sonicated for 15 seconds to remove any gas nuclei.
# The pressure drop across the air-water interface was measured during pulsation by a pressure transducer, and the corresponding surface tension determined through the application of Young's law and the Laplace equation. Measurements were all made at 37° C. and the bubble pulsed at 20 cycles/minute to render respectively a maximum (1.1. mm) and a minimum (0.8 mm) bubble diameter. (This compression/expansion corresponds to a 50% change in the surface area of the air-water interface).
Molecule,Equilibrum (equilibrium adsorption value) [1],Wilhelmy-Langmuir Trough Max (maximum dynamic surface tension) [1],Wilhelmy-Langmuir Trough Min (minimum dynamic surface tension) [1],King-Clements Adsorption (surface tension) [2],Surface Tension Values Maximum (pulsating bubble apparatus) [3],Surface Tension Values Minimum (pulsating bubble apparatus) [3]
"SPB (53-78): synthetic C-terminal SP-B fragment (YSVILLDTLLGRMLPQLVCRLVLRCS; ends and bridges not checked; cysteine pairing not given here; UniProt P07988 253-278, looked up, fragment)",40.0 dynes/cm,49.3 dynes/cm,0.1 dynes/cm,45.0 dynes/cm,55.5 dynes/cm,4.9 dynes/cm
B1,38.0 dynes/cm,45.0 dynes/cm,0.0 dynes/cm,30.0 dynes/cm,49.0 dynes/cm,4.2 dynes/cm
